Assay [1] concerns the target chemokine receptor CCR2 on THP-1 cells (human) (UniProt P41597). In words: radioligand saturation binding on THP-1 cells, one-site binding hyperbola fit; mass concentration as fitted.
Assay [2] has the same target. In words: radioligand saturation binding on THP-1 cells, one-site binding hyperbola fit; molar conversion with 150 kDa.
Assay [3] shares this target. In words: radioligand saturation binding of 125I MCP-1 to THP-1 cells (CCR2), specific bound cpm, one site binding (hyperbola) fit.
For assay [4], the target named is T1, recombinant human MCP-1 (monocyte chemoattractant protein 1) (human, UniProt P13500 24-99). In words: cell-based or functional assay.
T1 sequence (P13500 24-99 limits assumed): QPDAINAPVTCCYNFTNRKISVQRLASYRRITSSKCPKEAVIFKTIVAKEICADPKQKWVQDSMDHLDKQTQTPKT
For assay [5], the target named is T1, recombinant human MCP-1 (monocyte …). In words: BIAcore, ratio of binding constants, reference eotaxin. The protocol: (§1) Anti-MCP-1 monoclonal antibodies were captured onto a BIAcore CM5 sensor surface (Biacore International, Piscataway, N.J.). A solution containing a mixture of rabbit anti-human Fc specific polyclonal antibodies and rabbit anti-mouse Fc specific polyclonal antibodies was first immobilized onto the sensor surface. After the restabilization of the new baseline, the anti-MCP-1 mAb is passed over the surface.
(§2) Analysis is performed as described above, with the exception only a single concentration is used, typically, a high ligand concentration (100 nM). Chemokines selected for mAb specificity were human forms of MCP-1, MCP-2, Eotaxin-1, Eotaxin-2 (CCL24, MPIF-2, NP_{—}002982) and Eotaxin-3 (CCL26, GenBank Q9Y258). All chemokines were purchased from R&D Systems. Dextran-sulfate (1%) was added to the sample buffer in the final round of assays to reduce non-specific binding, particularly to eotaxin-3.
The data for binding of C775 to each of the ligand described was processed to give a binding constant, where measurable. There was no measurable binding of C775 to any of the other MCP-1 homologs or eotaxin homologs. The calculated binding constant of C775 to MCP-1 by this method was 1.0 nM and for eotaxin >5 uM, respectively, for a ligand concentration 100 nM. Therefore, the binding specificity of C775 for MCP-1 as compared to eotaxin is >5000 fold. […]

For assay [6] the target is unchanged. In words: BIAcore, C775 captured on anti-Fc surface, MCP-1 in solution, 25 C.
From the text: as §1
(§3) Human MCP-1 purchased from R&D Systems (www.rndsystems.com) was reconstituted as proscribed by the vendor. Samples of varying concentrations were prepared using this stock solution. They were then passed over the surface of captured anti-MCP-1 mAb using KINJECT command at a flow rate of […]. Measurements are typically performed at 25° C. Sensor data was analyzed using the BLAevaluation software provided with the instrument.
(SPR reads the build-up and loss of mass on a sensor chip optically.)

The target in assay [7] is T2, human MCP-2 (human, UniProt P80075 24-99).
T2 sequence (looked up): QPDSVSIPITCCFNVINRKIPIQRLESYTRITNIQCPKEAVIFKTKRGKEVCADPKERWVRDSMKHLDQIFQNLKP
In words: BIAcore, C775 captured on anti-Fc surface, single ligand concentration.
From the text: as §1, §3, §2

In assay [8] the target is T3, human Eotaxin-2 (CCL24, MPIF-2) (human, UniProt O00175 27-104, limits assumed).
T3 sequence (looked up): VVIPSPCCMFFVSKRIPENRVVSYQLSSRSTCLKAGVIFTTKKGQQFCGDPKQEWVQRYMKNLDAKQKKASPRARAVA
The description is as above.
From the text: as §1, §3, §2

For assay [9], the target named is T4, human Eotaxin-3 (CCL26) (human, UniProt Q9Y258 24-94).
T4 sequence (looked up): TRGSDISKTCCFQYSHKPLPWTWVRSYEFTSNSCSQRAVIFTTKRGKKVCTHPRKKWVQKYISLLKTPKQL
The description is as above.
From the text: as §1, §3, §2

The target of assay [10] is T5, 125I labeled human MCP-1 (NEX332, Perkin Elmer) (human, UniProt P13500 24-99, 125I label, residue not stated).
T5 construct: Bought radio-iodinated MCP-1; also called radiolabeled MCP-1
T5 sequence (P13500 24-99 limits assumed): as the sequence (P13500 24-99 limits assumed) above
In words: inhibition of 125I MCP-1 (1 ng/ml) binding to CCR2 on THP-1 cells, filter plate radioligand assay. The protocol: Negative controls (no inhibition) or total binding was measured in 50 ul of assay buffer with no other additions. Nonspecific binding (background) was measured by adding 50 ul of MCP-1 at a final concentration of […]. Test wells received 50 ul of serial dilutions of mAb. Lastly, 50 ul of ¹²⁵I MCP-1 at a final concentration of 1 ng/ml was added to all wells resulting in a total assay volume of […].
To test the efficacy of anti-MCP-1 mabs, a concentration of 1 ng/ml ¹²⁵I MCP-1 was used. Cells were incubated with 1 ng/ml ¹²⁵I MCP-1 with or without serial dilutions of either the commercial Mab (positive control) or 6 different Mabs generated in Example 2. There is a dose-dependent inhibition of ¹²⁵I MCP-1 binding to the CCR2 receptor with the commercial Mab. A dose-dependent inhibition was also observed with five of the six Centocor-generated Mabs allowing the calculation of an IC50 concentration: C727, C728, C752, C753 and, C775.

“And” between values parts separate entries of the source, which are not always exact repeats. Equal entries are not always repeated. A value given as a limit tells only on which side of the number the result lay.

Data on 2 molecules can be found in patent publication US20060039913A1 (Janssen / Centocor, published 2006).

For “125I labeled human MCP-1 (NEX332, Perkin Elmer) (from UniProt P13500 24-99) (ligand)”, the Kd was 0.00896 µg/mL in assay [1] and 1 nM in assay [2]. Also, the BMAX in assay [3] was determined as 15700 cpm.

B1: murine anti-human MCP-1 monoclonal antibody C775 (antibody, mouse IgG1, V domains shown)
VH: QVQLKQSGAELVRPGASVKLSCKASGYTFTDYYINWVKQRPGQGLEWIARIYPGTGNTYYNENFKGKATLTAEKSSSTAYMQLSSLTSEDSAVYFCARSGSTVVGNYYGMDYWGQGTSVTVSS
VL: SIVMTQTPKFLLVSAGDRVSITCKASQSVSNDVAWYQQKPGQSPKLLIYYASNRYTGVPDRFTGSGYGTDFTFTISTVQAEDLAVYFCQQDYSSPWTFGGGTKLEIKR
notes: also called CNTO4874; CNTO 4874
Take B1: in assay [4], the “IC50 (nM), Ca2+ mobilization in THP-1 cells with 300 ng/ml MCP-1” value is 53 nM. In addition, the “IC50 (µg/ml), Ca2+ mobilization in THP-1 cells with 300 ng/ml MCP-1” value in assay [4] stood at 8.01 µg/mL. Also, the “binding specificity for MCP-1 as compared to eotaxin (fold)” value in assay [5] was more than 5000 fold. Moreover, in assay [6], the Kd worked out at 1 nM. The binding result in assay [7], in assay [8] and in assay [9] was “no binding (tested: 100 nM ligand)” throughout. Moreover, the IC50 in [10] is 7.1 µg/mL and 47 nM.

In general, Kd refers to the concentration at which binding is half-saturated. For orientation: IC50 means the concentration needed to halve the response being measured.
